The target in the experiment is human Nav1.7 (sodium channel protein type 9 subunit alpha) (human) (UniProt Q15858). The experiment in a line: cell-based or functional assay.

Consider wild type Protoxin-II (peptide), for which the IC50, FLIPR assay stood at 4 nM.

The record behind these values is patent US20150099705A1.
